According to patent publication CN112375147A (THE THIRD AFFILIATED HOSPITAL NAVAL MEDICAL UNIV OF PLA, dated 2021):

Molecular target: T1, YKL-40 (native, secreted); in serum of patients with hepatocellular carcinoma lung metastasis and in culture … (human, UniProt P36222 22-383)
T1 construct: mature; Endogenous secreted protein, not a recombinant construct; also called Chi3l1; BRP39
Experiment: ELISA of YKL-40 left detectable in patient serum (1:100) after overnight incubation at 4 C with 10 ug/mL antibody, IgG control

T1 sequence (P36222 22-383): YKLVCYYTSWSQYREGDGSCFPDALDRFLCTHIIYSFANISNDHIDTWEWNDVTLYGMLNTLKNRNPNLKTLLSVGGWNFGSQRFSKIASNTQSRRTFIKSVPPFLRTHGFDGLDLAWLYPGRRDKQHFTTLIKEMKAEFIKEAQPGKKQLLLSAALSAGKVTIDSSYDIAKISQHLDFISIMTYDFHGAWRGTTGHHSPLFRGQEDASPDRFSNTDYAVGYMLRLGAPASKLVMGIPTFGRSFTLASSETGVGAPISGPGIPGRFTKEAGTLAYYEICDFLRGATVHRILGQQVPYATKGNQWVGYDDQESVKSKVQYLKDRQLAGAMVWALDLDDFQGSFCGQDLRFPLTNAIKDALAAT

B1: 抗人YKL-40中和性单克隆抗体 (antibody, V domains shown)
VH: EVKLEESGGGLVQPGGSMKLSCAASGFTLSDAWMDWVRQSPEKGLEWVAEIRSKGNNHTPYYAESVKGRFTISRDDSRNSVYLQMNTLRAEDTGTYYCTRTVYYYGSSSCAMDYWGQGTSVTVSS
VL: DIQMTQSPASLSASVGETVTITCGASENIYGALNWYQRKQGKSPQLLIFGASNLADDMSSRFSGSGSGRQYSLKISSLHPDDVATYFCQNVLRTPWTFGGGTNLEIK
notes: Monoclonal antibody from mouse immunisation (hybridoma Hyb-NAY); also called N-AY; YKL-40中和性单抗
Does B1 bind?
Result: binds
